Test results from PMC12945441 (Science (New York, N.Y.), 2022).

Molecular target: prefusion SARS-CoV-2 Omicron BA.1 S ectodomain trimer (SARS-CoV-2 Omicron BA.1 (B.1.1.529), strain)
Experiment: cryo-EM structure
Conditions: both partners purified

B1: S2X324 Fab fragment (Fab, V domains shown)
VH: QITLKESGPTLVKPTQTLTLTCTFSGFSVTTSGVGVGWIRQPPGKALEYLALIYWDDDKRYSTSLKSRLTITKDTSKNQVVLTMTNMDPVDTATYYCARHTIPSIFDYWGQGILVTVSS
VL: QPVLTQPASVSGSPGQSITISCTATSSDVGNYNYVSWYQHHPGKAPKLMIYEVSNRPSGVSNRFSGSKSGNTASLTISGLQAEDEADYYCSSYTSSSLLFGGGTKLTVL
- stoichiometry N: 3 Fabs per S trimer
